Test [1] has as its target Ad26.HVR5C hexon, on purified vector particles (human adenovirus type 26). The test is described as follows: SPR; biotinylated virus coupled to a streptavidin (SA) chip (Ad5 482 RU, Ad26.HVR5C 484 RU), T200; 2-fold serial dilutions of hFX from 30 μg/mL injected at 30 μL/min; 10 mM HEPES pH 7.4, 150 mM NaCl, 5 mM CaCl2, 0.005% Tween20; 1:1 binding model. (In general: In SPR one partner is held on a chip, and binding of the other changes the refractive index at the surface.)

Test [2] addresses adenovirus type 5 (Ad5) hexon, on purified Ad5 vector particles (human adenovirus type 5) (UniProt P04133). The test is described as above.

For “human coagulation factor X (natural protein)”, in test [1], the Kd stood at 3.46 nM, the off-rate constant (koff) turned out to be 0.0107 s⁻¹ and the association rate constant (kon) was 3.08e+06 M⁻¹ s⁻¹. In test [2], the Kd was 2.33 nM, the off-rate constant (koff) was found to be 0.00305 s⁻¹ and the kon was found to be 1.31e+06 M⁻¹ s⁻¹.

Broadly, the Kd is the constant that tells how readily two partners part at equilibrium. A low value points to a tighter complex. Usually koff stands for a measure of how fast the partners let go of each other. One may read the kon as a measure of how fast the partners come together. Read a low kon as slower complex formation.

Source of the values: article PMC4450073.
